Reference: US20080113421A1, “Stabilizing proteins against denaturation and inactivation by charged detergents using chemical modifications, including modifications that increase net charge” (President and Fellows of Harvard College, priority 2006, published 2008)

Columns and labels:
Type in all cases: physicochemical
[1] = Denaturation of BCA charge ladders in 3 mM SDS (dialysis cassette) followed by capillary electrophoresis, with transition-state model fit; conditions: for b coefficient of fit ΔG‡=a+bn+cn^2: 3 mM SDS; for Chydro (hydrophobic contribution to ΔΔG‡): per acylation
Method: Denaturation experiments were performed as follows. A charge ladder of BCA (BCA-Acn or BCA-Hexn, 1 mL of 100 micromolar total protein in Tris-Gly buffer) was placed in a dialysis cassette (MW cutoff of 10 kDa). The dialysis cassette was placed in a 1 L bath of 3 mM SDS in Tris-Gly buffer at room temperature. The buffer was changed every 24 h. At regular intervals of time (approximately every half-hour), 100 microliters of the protein solution was removed from the dialysis cassette; ˜7 microliters of that aliquot was diluted 10-fold and the absorbance of the diluted sample at 280 nm (ε280,BcA=57,000 M^−1 cm^−1, the absorption cross section can be assumed to be is unchanged by acylation) was measured to determine the total protein concentration. The aliquot was diluted because the absorbance of the 100 micromolar solution was too high to be read accurately by the ultraviolet spectrometer. This diluted aliquot was discarded. The remainder of the solution was then run on CE. The protein solution, except for the portion diluted for ultraviolet measurement, was returned to the dialysis cassette; the aliquot was outside of the dialysis cassette for ˜5 min.
Capillary electrophoresis experiments were carried out in a Beckman (Fullerton, Calif.) PACE-MDQ system, using a capillary of inner diameter of 50 micrometers of total length of 110.2 cm, 100 cm to the detector. Tris-Gly in D2O was used as the running buffer, and the applied voltage was 30 kV. D2O was used in place of H2O for the electrophoresis buffer because the viscosity of D2O is higher than that of H2O and the higher viscosity minimizes diffusion. Samples were injected using pressure (20 psi) for 30 s. Each sample contained 0.65 mM dimethylformamide as an electrically neutral marker for electroosmotic flow.
The CMC of SDS in the Tris-Gly buffer used in this example was 4.3 mM. 3 mM SDS was chosen for these experiments because this concentration of SDS denatured BCA in an interval of time that was convenient for experimental work using CE. In addition, this concentration of SDS was close to the concentration often used in SDS-PAGE (0.1% or 3.5 mM). 1 mL of a solution of ˜100 micromolar of a charge ladder of BCA, dissolved in Tris-Gly buffer, was placed into a dialysis cassette (molecular weight cutoff of 10 kDa) and the cassette placed in 1 L of Tris-Gly buffer containing 3 mM SDS. The bath was kept at room temperature (˜22° C.) for the duration of the experiment.
At regular intervals of time (approximately every half hour), 100-microliter aliquots of the solutions containing the charge ladder of BCA were removed from the cassette in a bath of 3 mM SDS in Tris-Gly buffer, the total protein concentration in the aliquot was measured using absorbance at 280 nm, and a portion (˜10 nL) of the aliquot injected onto the CE. The unused portions of the aliquots were then returned to the cassette.
Residence time in the detection volume was determined as follows. […] If two proteins with the same absorptivity were present in a sample in equal concentrations, the protein of lower velocity would have a larger measured peak area than the protein of higher velocity. To correct for this experimental bias, the area of each peak was multiplied-by the velocity of the protein (Acorr=Ameasured×LD/tD), where LD is the length of the capillary from the end (where injection occurs) to the detector (100 cm in all of these experiments) and tD is the time it takes for the rung to reach the detector.
Initial differences in concentrations of each rung were as follows. The areas of each of the rungs in the charge ladder were not all equal before denaturation. To measure the fraction of each rung that has denatured at each time, the velocity-corrected area of each rung in the sample was divided by the velocity-corrected area of that rung in the charge ladder run in the absence of SDS.
A comparison of the rates of denaturation follows. […]

[2] = Net charge of protein (capillary electrophoresis, charge ladder)
Method: BCA-Ac18 was synthesized by reacting the lysine residues of BCA with acetic anhydride in 100 mM HEPES buffer, pH 8.2. The N-terminus of BCA was acetylated posttranslationally. The final product contained ˜90% of BCA-Ac18 and 10% of BCA-Ac17, as determined by peak areas in an electropherogram from separation by capillary electrophoresis. The net charge of BCA in Tris-Gly buffer was about −3, and the net charge of BCA-Ac18 was about −19. It is believed that the difference in charge between BCA and BCA-Ac18 was less than 18 full units of charge due to charge regulation-adjustment of protonation states of other ionizable groups on the protein to counteract the increasing electrostatic potential on its surface.
For any charge ladder of BCA, as the number of modifications (n) increases, the total charge on the protein becomes more negative, and the surface of the protein becomes more hydrophobic due to conversion of NH3^+ groups to NHCOR groups. Native BCA has a charge of ˜−2.9 at pH 8. The charge on the early rungs of the ladder increased linearly with the number of acylations; each rung adds an additional charge of ˜−0.9. Therefore, for example, BCA-Ac8 has a charge of ˜−10. The later rungs of the ladder may differ by <0.9 units of charge. Using the Linderstrom-Lang model of cooperativity in proton binding, the charge on BCA-Ac18 was calculated to be −19. The mobility of a given rung of BCA-Acn may have nearly the same mobility as the corresponding rung of BCA-Hexn. Thus, the charges of the BCA-Hexn may be indistinguishable from those of BCA-Acn for a given rung number. (Small deviations in mobility between later rungs of the two ladders may be due either to a change in charge or a change in drag between the two ladders. It can be assumed that any differences in the mobilities are due to additional drag from the hexanoyl groups relative to the acetyl groups.

[3] = Refolding after 1 week incubation at intermediate SDS concentrations (aggregation test)
Method: Aggregation was tested by renaturing the proteins from a denatured state at 10 mM SDS to 0.1 mM SDS, but through an incubation step at intermediate concentrations of SDS, instead of renaturing by rapid dilution from 10 mM SDS to 0.1 mM SDS directly (i.e., 10 mM SDS→2.5 mM SDS→0.1 mM SDS instead of 10 mM SDS→0.1 mM SDS). For incubation, concentrations of SDS were chosen in which aggregation was believed to occur on a similar or shorter time scale as refolding. The protein-SDS complex was diluted from 10 mM SDS to 2.5-0.7 mM SDS, the proteins were incubated for 1 week at those concentrations, and the samples further diluted to 0.1 mM SDS to initiate fast refolding.
The fluorescence signal from DNSA was normalized to that of refolded protein by rapid dilution from 10 to 0.1 mM SDS.

[4] = Unfolding (denaturation) of protein in SDS in Tris-Gly buffer, monitored by DNSA fluorescence
Method: Monitoring unfolding of BCA and BCA-Ac18 was performed as follows. The proteins (200 nM) were incubated in different concentrations of SDS in Tris-Gly buffer. A 100 microliter aliquot of protein-SDS solution was mixed with 100 microliters of DNSA solution (30 micromolar) with the same concentration of SDS, and measured the intensity of fluorescence (Perkin-Elmer LS50B spectrometer, λex=280 nm, λem=460 nm) as a function of time. The denaturation of BCA was continuously monitored in concentrations of SDS above 4 mM. The rate constants were determined for denaturation by fitting the intensity vs. time data to FU=FUmaxe^−kt+FUmin. Unfolding experiments at 37° C. were performed similarly, with samples stored in a dry bath incubator (Fisher Scientific).
The kinetics of unfolding were determined as follows. The rates of denaturation of BCA and BCA-Ac18 were measured by incubating the protein (200 nM) in solutions of different concentrations of SDS. Immediately prior to the measurement, an aliquot of solution containing protein and SDS was mixed with a solution containing DNSA and the same concentration of SDS; this protocol minimized the possibility that DNSA might stabilize the native conformation of the protein, and influence the rate of its denaturation. When BCA was denatured in concentrations of SDS of 4 mM and higher, DNSA was added to the original, denaturing solution because the rate of denaturation was too fast to follow with manual mixing of aliquots of protein and DNSA. It was observed that DNSA, when present with the protein in the denaturing solution, reduced the rates of denaturation by factors of about 2-10.
FIG. 1 plots the fluorescence of DNSA, normalized to the signal at t=0, as a function of time of incubation of samples of BCA and BCA-Ac18 in various concentrations of SDS. The decrease in the intensity of fluorescence of DNSA, and thus in the amount of folded protein, followed first-order kinetics. Denaturation of proteins with surfactants probably proceeds through intermediates, but when using a marker that is specific to the folded active site of carbonic anhydrase, transitions beyond the initial unfolding of the three-dimensional structure of the protein were not detected.
The tables list the half-lives (t1/2) for denaturation of BCA and BCA-Ac18 at several concentrations of SDS. The denaturation of BCA at 4 mM occurred very rapidly, and data are not shown to avoid overlap with data at 3.5 mM. The error bars represent the difference between the average and the largest and smallest values measured from at least three replicate measurements.

[5] = Refolding of SDS-denatured protein by dilution or removal of SDS, monitored by DNSA fluorescence
Method: Monitoring refolding of BCA and BCA-Ac18 was performed as follows. The proteins (10 micomolar) were denatured in 10 mM SDS for 24 h. […] Refolding was initiated by dilution of an aliquot of the denatured sample to a final concentration of protein of 200 nM, with varying concentrations of SDS in the buffer. Immediately prior to the measurement, an aliquot of renaturing protein was mixed with an equal aliquot of DNSA. The rate constants for renaturation were determined by fitting the data to FU=FUmax(1-e^−kt)+FUmin. The refolding experiments at 37° C. were performed similarly.
The kinetics of refolding were determined as follows. The rates of refolding of BCA and BCA-Ac18 from the fully denatured states (in 10 mM SDS) were measured by dilution of the solutions into buffers containing concentrations of SDS from 0.1 to 2 mM, using the fluorescence of DNSA as a marker for the appearance of the folded state. […] As in denaturation studies, an aliquot of solution of the protein and SDS was mixed with an equal aliquot of solution of DNSA with the same amount of SDS immediately prior to the measurement to eliminate the possibility of DNSA influencing refolding kinetics. The buffer also contained 100 micromolar ZnSO4 to ensure that the folded protein could incorporate a Zn(II) cofactor.
The raw data emphasize the decrease in the yield of folded protein with increasing concentration of SDS. […] The half-lives (t1/2) for renaturation were determined, where possible, by fitting the data to FU=FUmax(1-exp(−t/t1/2))+FUmin; the fits are shown (solid lines). The tables provide data for refolding in 0.1 and 0.4 mM SDS as well as for concentrations on the graphs for comparison. […] The error bars represent the difference between the average and the largest and smallest values measured from at least three replicate measurements.

[6] = Critical micelle concentration by isothermal titration calorimetry; conditions: 25 mM Tris-192 mM Gly, pH 8.4 buffer
Method: Critical micelle concentration of SDS in Tris-Gly buffer was determined as follows. The critical micelle concentration (CMC) of SDS in 25 mM Tris-192 mM Gly, pH 8.4 buffer was 4.3 mM, as measured by isothermal titration calorimetry. In this example, the kinetics of denaturation and renaturation of proteins in concentrations of SDS below the CMC were studied. The difference in kinetics of denaturation of the two proteins may also occur in concentrations of SDS above the CMC.

Q: Which results are given for “BCA-Acn: charge ladder of BCA prepared with acetic anhydride”?
A: b coefficient of fit ΔG‡=a+bn+cn^2 [1]: 0.50±0.01 kcal/mol of protein; effects of charge on denaturation with SDS relative to effects of hydrophobicity ([1]; model of charge ladder data): ~5 fold; Chydro (hydrophobic contribution to ΔΔG‡) [1]: 0.085 kcal/mol

Q: For “BCA-Ac8: rung of the acetyl charge ladder of BCA with 8 acetylated lysines (regioisomers)”, which “charge of rung from number of acylations” value ([2]; each rung adds ~−0.9) is on record?
A: ~−10

Q: What does the source list for “BCA-Hexn: charge ladder of BCA prepared with hexanoic anhydride”?
A: b coefficient of fit ΔG‡=a+bn+cn^2 [1]: 0.33±0.01 kcal/mol of protein; Chydro (hydrophobic contribution to ΔΔG‡) [1]: 0.26 kcal/mol

Q: For “BCA-Ac18: charge-modified derivative of BCA having all 18 lysine groups acetylated”, which “yield of refolded protein after incubation, relative to BCA” value ([3]; 1 week incubation at intermediate SDS, then 0.1 mM SDS) is on record?
A: higher than the yields of BCA

Q: And the t1/2 for refolding ([3]; denatured in 10 mM SDS, incubated 1 week at intermediate SDS, diluted into 0.1 mM SDS)?
A: 0.292 ± 0.0233 h

Q: What about the t1/2 for denaturation ([4]; 4 mM SDS, Tris-Gly buffer) of the same compound?
A: 30 h

Q: What about the “difference in denaturation time, BCA-Ac18 vs BCA (factor)” value ([4]; 4 mM and 10 mM SDS) of the same compound?
A: ~10^4

Q: What about the t1/2 for denaturation ([4]; 10 mM SDS, Tris-Gly buffer) of the same compound?
A: 2.67 h

Q: And the “difference in kinetics of denaturation of BCA and BCA-Ac18 (factor)” value ([4]; SDS at and above 2.5 mM)?
A: 10^1-10^4

Q: What about the “denaturation in low concentrations of SDS” value ([4]; SDS below 2 mM, long (~1 month) periods of time) of the same compound?
A: no denaturation was observed

Q: What about the “concentration of SDS at which the protein denatures” value ([4]; Tris-Gly buffer, CMC 4.3 mM) of the same compound?
A: ≥ 2500 µM

Q: And the “change in rates of denaturation with SDS, BCA vs peracetylated BCA” value ([4]; change in charge of the protein by a factor of 5)?
A: −3 orders of magnitude

Q: What about the “difference in activation energy for denaturation, BCA-Ac18 vs BCA” value ([4]; from the factor of about 10^4 in rates) of the same compound?
A: 5 kcal/mol

Q: What about the net charge ([2]; Tris-Gly buffer) of the same compound?
A: about −19

Q: And the “concentration of SDS at which no refolded protein was observed” value ([5]; dilution from 10 mM SDS)?
A: ≥ 1600 µM

Q: And the “rate of refolding relative to BCA” value ([5]; solutions with the same concentration of SDS)?
A: faster than refolding of BCA

Q: What about the “range of SDS concentrations in which protein neither refolds nor unfolds at an observable rate (window)” value ([5]; time scales of a month) of the same compound?
A: 1.6 to 2 mM

Q: And the “refolding rate (given as time) after denaturation with SDS” value ([5]; upon complete removal of the SDS)?
A: 21 ± 2 min

Q: With CCCCCCCCCCCCOS(=O)(=O)[O-].[Na+] [SDS, sodium dodecyl sulfate] as the compound, how does the “critical micelle concentration (CMC)” value [6] read?
A: 4.3 mM
